Molecular target: T1, recombinant human DAF (human, UniProt P08174 35-353, limits assumed)
T1 construct: also called recombinant human decay accelerating factor; CD55
T1 sequence (looked up): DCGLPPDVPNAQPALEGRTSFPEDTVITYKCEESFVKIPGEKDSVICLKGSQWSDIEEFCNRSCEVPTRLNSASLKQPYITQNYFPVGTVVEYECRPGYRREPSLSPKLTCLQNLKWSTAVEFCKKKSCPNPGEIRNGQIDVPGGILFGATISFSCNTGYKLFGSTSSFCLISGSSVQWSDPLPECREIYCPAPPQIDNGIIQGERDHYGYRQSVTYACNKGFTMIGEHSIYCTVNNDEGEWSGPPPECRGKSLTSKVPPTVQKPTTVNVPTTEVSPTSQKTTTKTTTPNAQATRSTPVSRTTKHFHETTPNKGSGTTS
Assay: SPR (BIACORE 1000), recombinant human DAF on CM-5 chip, LU30 scFv 25-100 nM injected

B1: LU30 scFv fragment (scFv, V domains shown)
VH: QVKLQESGGGLVQPGGSLKLSCAASGFTFSGYGMSWIRQTPDKRLEWVATINSGGSYTYYSDSVKGRFTISRDNVKNTLYLQMSSLKSEDTAMYYCARRNGTLYYYLMDYWGRGTLVTVSS
VL: QSVLTQPPSASGSPGQSVTISCTGTSSDVGGYNYVSWYQQHPGKAPKFMIYDVSKRPSGVSNRFSGSKSGNTASLTISGVQAEDEADYYCSSYTSASTVIFGGGTKLTVL
notes: Human scFv from a naive phage library (Vaughan et al.), secreted from E. coli and purified by its His tag; The full scFv is said to be under GenBank AF117206; also called clone LU30
Kd: 13 nM
koff: 0.0045 s⁻¹
kon: 340000 M⁻¹ s⁻¹

— EP1591456A1 (Genentech Inc., dated 2005)
